Experimental data published in patent publication US10494417B2, “Peptide inhibitors of BCR-ABL oligomerization” (University of Utah Research Foundation, priority 2014, dated 2019).
“Also recorded” adds a separate entry of the source.

How the values were obtained:
[1] = test system: Ba/F3 cells expressing BCR-ABL1T315I; assay: Proliferation of transfected Ba/F3 BCR-ABL1 T315I cells (MTS assay); type: cell-based, mouse; conditions: CCmut3 vs EV; for proliferation, in words: MTS assay at 72 and 96 h
Procedure: Stable recombinant Ba/F3 cells transduced with wild type p210 BCR-ABL1 (Daley, G. Q., et al. (1991) Proc. Natl. Acad. Sci. U.S.A. 88, 11335-11338), the kinase domain mutants p210^T315I p210^[…], or the compound mutant p210^E255V/T315I were as previously described (La Rosee, P., et al. (2002) Cancer Res. 62, 7149-7153; O'Hare, T., et al. (2004) Blood 104, 2532-2539). These cells were cultured in RPMI with 10% FBS, 1% penicillin, streptomycin, glutamine, and 0.1% gentamycin (RPMI1640). Additionally 0.1% MycoZap™ (Lonza Bio, Basel, Switzerland) was added to prevent mycoplasma contamination. The non-transduced parental Ba/F3 cell line was grown in RPMI1640 supplemented with 20% WEHI-3B conditioned medium as a source of murine IL-3 (Dexter, T. M., et al. (1980) J. Exp. Med. 152, 1036-1047). Ba/F3 cells were transfected with plasmid DNA using the Amaxa nucleofection system (Lonza Bio), following the manufacturer's instructions. Cells were sorted on a BD FACSAria cytometer (BD Biosciences, San Jose, Calif.) for double-positive cells expressing mCherry and GFP then returned to RPMI1640 for subsequent experiments.
Cell proliferation was assessed using the CellTiter 96® AQueous One Solution Cell Proliferation Assay (MTS assay, Promega) according to manufacturer instructions. Briefly, 5,000 viable cells were added to a single well in 96-well plate in 100 μL RPMI1640. Three independent samples were seeded in duplicate for each time point. […] In some experiments, cell proliferation was assessed using a Neubauer chamber and trypan blue dye exclusion.
Stable Ba/F3 cells transduced with native (p210) BCR-ABL1, the kinase domain mutants BCR-ABL1T315I, BCR-ABL1E255V, or the compound mutant BCR-ABL1E255V/T315I were cultured. […]
Cell proliferation was assessed using a […] viability assay (MTS assay) utilizing CellTiter 96® AQueous One Solution Cell Proliferation Assay (Promega) according to manufacturer instructions. […] Cell growth was assessed by MTS assay at 72 and 96 h. […] In patient sample experiments, cell proliferation was assessed by trypan blue exclusion.

Ba/F3-p210-T315I cells = assay: Colony forming assay of Ba/F3 BCR-ABL1 T315I cells; type: cell-based, mouse; conditions: for colony formation, in words: CCmut3 gene delivery (transfection; b502 lentiviral infection) vs EV; for reduction in CFCs / colony forming ability: CCmut3 vs EV
Procedure: Both EGFP and EGFP-CC^mut3 were transfected into separate groups of cells on day 0. One day following transfection, 1.0×10^6 cells per treatment group were collected and re-suspended in 1.0 mL of PBS. Through serial dilutions, 1.0×10^3 cells in IMDM (Isocove's modified Dulbecco's media) with 2% FBS were seeded into methylcellulose medium in the absence of cytokines (MethoCult H4230 for K562 cells and MethoCult M3234 for p210 and p210-T315I cells) or in the presence of cytokines (MethoCult GF M3434 for parental Ba/F3 cells). Ponatinib was then added in the correct molar amounts (0, 100 pM, 1 nM, or 10 nM) to the methylcellulose medium. Colonies formed were counted after 7 days of incubation. All reagents were purchased from Stem Cell Technologies, Vancouver, BC, Canada. Assay was run three separate times (n=3) in duplicate.
Briefly, mCherry-positive Ba/F3 cells were re-suspended in IMDM with 2% FBS (Stem Cell Technologies) at a concentration of 10,000 cells/mL. Three hundred microliters of this dilution was added to 3 mL of Methocult media (M3434—Ba/F3 p210 wild-type and mutant lines or M3234—Ba/F3 parental, Stem Cell Technologies). Approximately 1100 cells, or 1.2 mL, were seeded per dish in duplicate for each transfection. Colonies were counted 7 days later in an area of 100 μm^2 per dish.
All cells were plated with or without the indicated TKI in three or more independent experiments. Plates were incubated at 37° C. in a 5% CO2 humidified incubator. Colonies were counted 7-14 days later in an area of 50 μm2 per dish using an inverted microscope.

B1: CCmut3: modified Bcr-Abl coiled-coil domain (residues 1-72) with mutations C38A, K39E, S41R, L45D, E48R, Q60E (protein)
chain: MVDPVGFAEAWKAQFPDSEPPRMELRSVGDIEQELERAEARIRRDEQRVNQERFRMIYLETLLAKEKKSYDR
reduction of proliferation ([1]; 96 h, MTS assay): approximately 3 fold
proliferation, in words [1]: significant reduction of proliferative capacity; also recorded: lesser, yet significant difference was noted at the 72 h time point
proliferation, in words ([1]; listed as CC^mut3): significant reduction
reduction of transformative ability compared to EGFP control (Ba/F3-p210-T315I cells; CC^mut3 alone, Ba/F3-p210-T315I): ~40%
colony formation, in words (Ba/F3-p210-T315I cells): significantly fewer colonies per unit area
colony formation, in words (Ba/F3-p210-T315I cells; listed as CC^mut3): Inhibition in colony formation
reduction in CFCs / colony forming ability (Ba/F3-p210-T315I cells): > 10 fold
reduction in CFCs / colony forming ability (Ba/F3-p210-T315I cells; listed as CC^mut3): more than 10 fold
